Experiment [1] concerns the target T1, P2-AA-12HAA-R.
T1 chain: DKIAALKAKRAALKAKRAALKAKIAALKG
Description: two-hybrid library CCmax.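 Note: natural log of median RNA to DNA barcode read ratio; higher means stronger binding.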

Experiment [2] addresses T2, 4H895-AA.
T2 chain: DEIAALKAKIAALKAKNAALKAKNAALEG
The experiment can be described thus: two-hybrid library CCmax.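 Note: natural log of median RNA to DNA barcode read ratio; higher means stronger binding.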 Particulars: mean of both orientations.

Experiment [3] addresses T3, 4H3705-AA.
T3 chain: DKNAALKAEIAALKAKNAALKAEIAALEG
The experiment can be described thus: two-hybrid library CCmax.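 Note: natural log of median RNA to DNA barcode read ratio; higher means stronger binding.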 Particulars: mean of both orientations.

In experiment [4] the target is T4, 4H486-AA.
T4 chain: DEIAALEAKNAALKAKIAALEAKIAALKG
Description: two-hybrid library CCmax.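 Note: natural log of median RNA to DNA barcode read ratio; higher means stronger binding.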 Particulars: mean of both orientations.

The target in experiment [5] is 4H_GCN4. Description: two-hybrid library CCmax.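 Note: natural log of median RNA to DNA barcode read ratio; higher means stronger binding.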
Chain of 4H_GCN4 (chain, as listed by the source): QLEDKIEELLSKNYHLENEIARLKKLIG
The target of experiment [6] is T5, 4H465-AA.
T5 chain: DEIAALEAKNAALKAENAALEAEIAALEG
Description: two-hybrid library CCmax.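 Note: natural log of median RNA to DNA barcode read ratio; higher means stronger binding.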 Particulars: mean of both orientations.

Experiment [7] has as its target T6, 4H3782-AA.
T6 chain: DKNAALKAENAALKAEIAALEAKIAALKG
Description: two-hybrid library CCmax. Particulars: mean of both orientations.

Experiment [8] deals with GCN2_T. The experiment can be described thus: two-hybrid library CCmax.
In experiment [9] the target is T7, 4H355-AA.
T7 chain: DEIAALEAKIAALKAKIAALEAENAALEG
The experiment can be described thus: two-hybrid library CCmax.

Experiment [10] concerns the target T8, 4H535-AA.
T8 chain: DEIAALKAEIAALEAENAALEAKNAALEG
The experiment can be described thus: two-hybrid library CCmax.

The target in experiment [11] is T9, 4H3651-AA.
T9 chain: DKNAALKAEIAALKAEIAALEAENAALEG
Description: two-hybrid library CCmax. Particulars: mean of both orientations.

The target of experiment [12] is T10, 4H58-AA.
T10 chain: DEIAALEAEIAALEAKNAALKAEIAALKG
Description: two-hybrid library CCmax. Particulars: mean of both orientations.

The target of experiment [13] is T11, 4H_APH.
T11 chain: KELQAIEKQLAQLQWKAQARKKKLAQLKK
The experiment can be described thus: two-hybrid library CCmax.

Experiment [14] deals with T12, 4H_BCR.
T12 chain: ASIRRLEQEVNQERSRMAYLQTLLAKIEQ
The experiment can be described thus: two-hybrid library CCmax. Particulars: mean of both orientations.

For experiment [15], the target named is T13, 4H2931-bN.
T13 chain: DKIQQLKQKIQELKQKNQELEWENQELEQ
The experiment can be described thus: two-hybrid library CCNG1.

The target in experiment [16] is T14, 4H3297-bN.
T14 chain: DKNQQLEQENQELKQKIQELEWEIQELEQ
Description: two-hybrid library CCNG1.

In experiment [17] the target is T15, 4H349-bN.
T15 chain: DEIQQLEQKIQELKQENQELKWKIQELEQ
Description: two-hybrid library CCNG1.

Experiment [18] has as its target T16, 4H730-bN.
T16 chain: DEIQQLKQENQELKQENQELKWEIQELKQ
Description: two-hybrid library CCNG1.

Experiment [19] addresses T17, 4H2760-bN.
T17 chain: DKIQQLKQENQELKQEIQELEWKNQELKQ
The experiment can be described thus: two-hybrid library CCNG1.

In experiment [20] the target is T18, 4H932-bN.
T18 chain: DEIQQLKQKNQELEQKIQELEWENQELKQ
Description: two-hybrid library CCNG1.

The target in experiment [21] is T19, 4H3364-bN.
T19 chain: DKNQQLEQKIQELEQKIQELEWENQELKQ
The experiment can be described thus: two-hybrid library CCNG1.

The target in experiment [22] is T20, 4H2859-bN.
T20 chain: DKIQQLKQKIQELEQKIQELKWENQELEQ
The experiment can be described thus: two-hybrid library CCNG1.

Experiment [23] addresses T21, 4H3041-bN.
T21 chain: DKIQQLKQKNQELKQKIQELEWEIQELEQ
Description: two-hybrid library CCNG1.

Experiment [24] addresses T22, 4H3381-bN.
T22 chain: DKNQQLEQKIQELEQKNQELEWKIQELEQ
The experiment can be described thus: two-hybrid library CCNG1.

In experiment [25] the target is T23, 4H796-bN.
T23 chain: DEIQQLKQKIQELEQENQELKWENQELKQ
Description: two-hybrid library CCNG1.

Experiment [26] concerns the target T24, 4H56-bN.
T24 chain: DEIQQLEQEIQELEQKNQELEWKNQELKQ
The experiment can be described thus: two-hybrid library CCNG1.

Experiment [27] addresses T25, 4H949-bN.
T25 chain: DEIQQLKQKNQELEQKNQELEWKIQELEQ
Description: two-hybrid library CCNG1.

In experiment [28] the target is T26, 4H754-bN.
T26 chain: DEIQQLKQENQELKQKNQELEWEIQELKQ
The experiment can be described thus: two-hybrid library CCNG1.

Experiment [29] concerns the target T27, 4H908-bH.
T27 chain: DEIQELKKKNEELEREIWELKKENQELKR
The experiment can be described thus: two-hybrid library CCNG1.

In experiment [30] the target is T28, 4H883-bH.
T28 chain: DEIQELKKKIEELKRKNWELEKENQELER
The experiment can be described thus: two-hybrid library CCNG1.

In experiment [31] the target is T29, 4H3427-bH.
T29 chain: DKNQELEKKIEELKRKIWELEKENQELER
Description: two-hybrid library CCNG1.

Experiment [32] deals with T30, 4H967-bH.
T30 chain: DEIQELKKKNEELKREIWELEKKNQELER
Description: two-hybrid library CCNG1.

Experiment [33] has as its target T31, 4H607-bH.
T31 chain: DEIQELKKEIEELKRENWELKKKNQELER
The experiment can be described thus: two-hybrid library CCNG1.

For experiment [34], the target named is T32, 4H72-bH.
T32 chain: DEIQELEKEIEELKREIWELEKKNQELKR
Description: two-hybrid library CCNG1.

The target in experiment [35] is T33, 4H918-bH.
T33 chain: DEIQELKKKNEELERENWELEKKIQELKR
The experiment can be described thus: two-hybrid library CCNG1.

In experiment [36] the target is T34, 4H370-bH.
T34 chain: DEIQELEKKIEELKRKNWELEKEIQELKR
Description: two-hybrid library CCNG1.

The target of experiment [37] is T35, 4H338-bH.
T35 chain: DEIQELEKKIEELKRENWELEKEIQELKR
Description: two-hybrid library CCNG1.

Experiment [38] has as its target T36, 4H331-bH.
T36 chain: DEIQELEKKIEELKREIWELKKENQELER
The experiment can be described thus: two-hybrid library CCNG1.

Experiment [39] concerns the target T37, 4H797-bH.
T37 chain: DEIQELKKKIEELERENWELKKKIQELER
Description: two-hybrid library CCNG1.

In experiment [40] the target is T38, 4H754-bH.
T38 chain: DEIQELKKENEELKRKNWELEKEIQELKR
Description: two-hybrid library CCNG1.

Experiment [41] deals with T39, 4H687-bH.
T39 chain: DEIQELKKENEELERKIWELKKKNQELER
Description: two-hybrid library CCNG1.

In experiment [42] the target is T40, 4H3843-bH.
T40 chain: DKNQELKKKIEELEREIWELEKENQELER
The experiment can be described thus: two-hybrid library CCNG1.

For experiment [43], the target named is T41, 4H568-bH.
T41 chain: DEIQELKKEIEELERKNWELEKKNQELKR
The experiment can be described thus: two-hybrid library CCNG1.

Experiment [44] has as its target T42, 4H3606-bH.
T42 chain: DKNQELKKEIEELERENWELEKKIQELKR
Description: two-hybrid library CCNG1.

The target of experiment [45] is T43, 4H462-bH.
T43 chain: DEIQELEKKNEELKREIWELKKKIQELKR
Description: two-hybrid library CCNG1.

In experiment [46] the target is T44, 4H717-bH.
T44 chain: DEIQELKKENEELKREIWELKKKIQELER
The experiment can be described thus: two-hybrid library CCNG1.

Experiment [47] deals with T45, 4H953-bH.
T45 chain: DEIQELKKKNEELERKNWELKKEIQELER
Description: two-hybrid library CCNG1.

In experiment [48] the target is T46, 4H4001-bH.
T46 chain: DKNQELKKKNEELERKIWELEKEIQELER
Description: two-hybrid library CCNG1.

The target in experiment [49] is T47, 4H3782-bH.
T47 chain: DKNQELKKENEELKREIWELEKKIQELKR
The experiment can be described thus: two-hybrid library CCNG1.

Experiment [50] has as its target T48, 4H454-bH.
T48 chain: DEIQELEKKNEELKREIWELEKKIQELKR
The experiment can be described thus: two-hybrid library CCNG1.

Experiment [51] addresses T49, 4H3354-bH.
T49 chain: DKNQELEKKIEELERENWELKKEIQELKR
Description: two-hybrid library CCNG1.

Experiment [52] concerns the target T50, 4H3855-bH.
T50 chain: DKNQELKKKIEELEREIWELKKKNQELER
The experiment can be described thus: two-hybrid library CCNG1.

For experiment [53], the target named is T51, P9bH1.
T51 chain: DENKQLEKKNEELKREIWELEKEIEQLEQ
The experiment can be described thus: two-hybrid library CCNG1.

Experiment [54] concerns the target T52, O5-bA.
T52 chain: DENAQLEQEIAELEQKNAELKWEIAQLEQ
The experiment can be described thus: two-hybrid library CCNG1.

Experiment [55] addresses T53, O7-bA.
T53 chain: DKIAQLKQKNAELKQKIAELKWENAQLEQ
The experiment can be described thus: two-hybrid library CCNG1.

Experiment [56] addresses T54, O6-bA.
T54 chain: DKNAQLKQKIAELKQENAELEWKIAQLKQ
The experiment can be described thus: two-hybrid library CCNG1.

In experiment [57] the target is T55, O9-bA.
T55 chain: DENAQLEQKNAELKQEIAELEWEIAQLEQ
The experiment can be described thus: two-hybrid library CCNG1.

In experiment [58] the target is T56, O4-bA.
T56 chain: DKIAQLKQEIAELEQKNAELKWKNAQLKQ
Description: two-hybrid library CCNG1.

Experiment [59] addresses T57, O8-bA.
T57 chain: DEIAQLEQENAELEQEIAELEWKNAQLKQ
The experiment can be described thus: two-hybrid library CCNG1.

B1: 4H355-AA (peptide)
chain: DEIAALEAKIAALKAKIAALEAENAALEG
As to B1, the interaction score was -2.32 in experiment [1]; -0.0681 in experiment [2]; -1.7 in experiment [3]; -0.342 in [4]; -1.7 in experiment [5]; -1.96 in experiment [6]. Further, the interaction score in experiment [7] is 0.393; in experiment [8] it was -2.04; in experiment [9], 0.592; in experiment [10] it was -0.775; in [11], 0.086; in experiment [12] it was 1.08. Also, the interaction score in [13] is -0.88; in [14], -1.56.

B2: 4H2760-bN (peptide)
chain: DKIQQLKQENQELKQEIQELEWKNQELKQ
With B2, the interaction score in [15] was -0.107; in experiment [16], -1.61; in experiment [17], -1.63; in experiment [18] it was -0.45; in experiment [19] it was -0.578; in [20], -1.77. Besides, the interaction score in experiment [21] is -0.234; in [22] it was 1.03; in experiment [23], -0.517; in experiment [24], 0.638; in experiment [25], 0.11; in experiment [26], -0.482. The interaction score in [27] stood at 0.472.

B3: 4H331-bH (peptide)
chain: DEIQELEKKIEELKREIWELKKENQELER
Take B3: the interaction score is -1.25 in experiment [28]; -0.0604 in [29]; 0.193 in [30]; 1.6 in experiment [31]; -0.299 in experiment [32]; -1.89 in experiment [33]. Also, the interaction score in experiment [34] was 0.733; in experiment [35], -1.11; in experiment [36] it was -0.325; in [37] it was 0.213; in [38] it was 1.45; in experiment [39], -0.0604. For the same molecule, the interaction score in experiment [40] is -1.42; in experiment [41], -0.531; in experiment [42], 0.837; in experiment [43], -1.97; in experiment [44], 0.467; in experiment [45], 0.445. Moreover, the interaction score was -1.1 in [46]; -0.344 in experiment [47]; 0.891 in experiment [48]; -0.0752 in experiment [49]; -0.0612 in experiment [50]; -0.721 in experiment [51]. This molecule also showed an interaction score in experiment [52] of 0.334.

B4: P9bH1 (peptide)
chain: DENKQLEKKNEELKREIWELEKEIEQLEQ
In the case of B4, in experiment [53], the interaction score was -0.482.

B5: 4H3364-bN (peptide)
chain: DKNQQLEQKIQELEQKIQELEWENQELKQ
Turning to B5, the interaction score in [54] was -0.987; in experiment [17], -0.763; in experiment [18], 0.217; in experiment [20], -1.67; in experiment [21] it was 0.858; in experiment [24] it was -0.731. Also, the interaction score in [25] is 0.309; in experiment [26], -0.197; in experiment [27], -1.23.

B6: O4-bA (peptide)
chain: DKIAQLKQEIAELEQKNAELKWKNAQLKQ
For B6, the interaction score in [54] was -0.0834; in experiment [55] it was 0.351; in experiment [56], 1.17; in experiment [57], -0.232; in experiment [58], 0.158; in experiment [59], -1.68.
